Experimental data reported in publication doi:10.1101/2022.11.12.516293.
Where two headings read alike, the source gives them in different places.

Assays:
Test in all cases: EMSA
PU.1 [1] = biological target: T1, PU.1 (UniProt P17947 1-270)
PU.1 [2] = biological target: T1, PU.1; remark: listed apart in the source
PU.1 [3] = biological target: T1, PU.1; remark: listed apart in the source

B1: rs1320496-T (dsDNA)
DNA 1: CAGGAGGGGAAGTGGGATGCATGAGAAGAGGACGCGTTTC
DNA 2: GAAACGCGTCCTCTTCTCATGCATCCCACTTCCCCTCCTG
B1: binds (PU.1 [1]).

B2: rs1412444-T (dsDNA)
DNA 1: CTATTTGCCTTTAAACACTGGAAATAACACCAGTGGC
DNA 2: GCCACTGGTGTTATTTCCAGTGTTTAAAGGCAAATAG
B2: binds (PU.1 [2]).

B3: rs1412445-T (dsDNA)
DNA 1: GGTCATTAGGAGGATGTTGGTGCTATTAATAATAGAG
DNA 2: CTCTATTATTAATAGCACCAACATCCTCCTAATGACC
B3: no binding (PU.1 [3]).
